What is called Kd is the constant that tells how readily two partners part at equilibrium. A higher Kd goes with weaker binding.

From paper PMC3972757 (Biochemistry, 2013) come the findings set out here.

For the assay, the target named is ubiquitin (human, UniProt P0CG47 1-76). Put plainly: ITC. Background: Isothermal titration calorimetry measures the heat released or taken up as one component is titrated into another.

B1: Phe320Ala mutant of the catalytic domain of AMSH (domain or fragment, human, UniProt O95630 219-424, looked up)
chain: SDCHTTVRPAKPPVVDRSLKPGALSNSESIPTIDGLRHVVVPGRLCPQFLQLASANTARGVETCGILCGKLMRNEFTITHVLIPKQSAGSDYCNTENEEELALIQDQQGLITLGWIHTHPTQTAFLSSVDLHTHCSYQMMLPESVAIVCSPKFQETGFFKLTDHGLEEISSCRQKGFHPHSKDPPLFCSCSHVTVVDRAVTITDLR
In turn, B1 showed a Kd of 81 ± 15 µM.
